Laboratory results: article PMC12208556

Target: recombinant full-length thrombospondin-1 (human) (UniProt P07996)
Assay: SPR; BIAcore 3000; TSP-1 bound covalently to CM5 chips at 0.1 uM; complement proteins as analytes at 12.3, 37.03, 111.1, 333.3, 1,000 nM in PBS plus 0.05% Tween 20; 1:1 Langmuir binding model; average of 3 repeated measurements

recombinant full-length thrombospondin-1 (human), sequence (P07996 19-1170): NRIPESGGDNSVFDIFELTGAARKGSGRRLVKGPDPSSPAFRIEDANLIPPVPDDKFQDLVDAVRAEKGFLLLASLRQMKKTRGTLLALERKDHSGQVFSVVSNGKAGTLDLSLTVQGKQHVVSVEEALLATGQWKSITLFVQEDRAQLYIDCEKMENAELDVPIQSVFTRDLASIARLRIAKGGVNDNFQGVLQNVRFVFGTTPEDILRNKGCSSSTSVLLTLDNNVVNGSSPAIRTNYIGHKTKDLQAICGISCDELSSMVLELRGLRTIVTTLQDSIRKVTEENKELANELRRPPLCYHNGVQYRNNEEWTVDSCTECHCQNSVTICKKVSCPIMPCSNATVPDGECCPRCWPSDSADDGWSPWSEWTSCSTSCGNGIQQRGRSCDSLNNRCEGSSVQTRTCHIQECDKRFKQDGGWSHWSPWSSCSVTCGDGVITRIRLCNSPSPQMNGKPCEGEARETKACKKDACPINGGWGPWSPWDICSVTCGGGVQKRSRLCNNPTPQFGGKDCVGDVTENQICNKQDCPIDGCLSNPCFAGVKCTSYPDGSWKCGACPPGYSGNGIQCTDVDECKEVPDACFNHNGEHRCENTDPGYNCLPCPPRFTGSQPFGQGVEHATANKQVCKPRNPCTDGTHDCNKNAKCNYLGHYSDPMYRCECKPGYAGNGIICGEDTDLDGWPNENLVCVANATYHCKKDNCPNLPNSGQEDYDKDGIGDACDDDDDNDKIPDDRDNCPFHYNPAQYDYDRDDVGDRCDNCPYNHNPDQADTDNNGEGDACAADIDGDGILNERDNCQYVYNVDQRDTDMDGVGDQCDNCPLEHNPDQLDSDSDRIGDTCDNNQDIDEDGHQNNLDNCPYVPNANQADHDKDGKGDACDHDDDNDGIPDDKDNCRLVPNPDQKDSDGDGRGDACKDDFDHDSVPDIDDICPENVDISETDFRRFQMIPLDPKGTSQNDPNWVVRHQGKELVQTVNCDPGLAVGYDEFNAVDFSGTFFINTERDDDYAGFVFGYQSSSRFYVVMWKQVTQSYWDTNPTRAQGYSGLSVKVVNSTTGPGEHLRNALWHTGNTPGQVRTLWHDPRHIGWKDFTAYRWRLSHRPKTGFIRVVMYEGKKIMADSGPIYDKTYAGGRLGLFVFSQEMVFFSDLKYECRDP

Kd [nM]	Substance
127	complement C3 (natural protein)
47.2	complement C5 (natural protein)
